Substitutions are numbered along the chain they refer to. Names and notes keep the numbering of the source.
B1: PXP (SEQ ID NO: 81) (designed binder)
chain: MRGSHHHHHHGSGRGDSVDGSGSGSGSGSGSGAPQMLRELQETNAALQDVRELLRQQVKEITFLKNTVMESDASGSGSGSGSGSGSLDGSPAGSPTSTEEGTSESATPESGPGTSTEPSEGSAPGSPAGSPTSTEEGTSTEPSEGSAPGTSTEPSEGSAPGTSESATPESGPGSEPATSGSETPGSEPATSGSETPGSPAGSPTSTEEGTSESATPESGPGTSTEPSEGSAPLDGSGSGSGSGSGSGAPQMLRELQETNAALQDVRELLRQQVKEITFLKNTVMESDASGSGSGSGSGSGSLEGRGDSHHHHHHKLN
B2: T40A mutant (SEQ ID NO: 82) (designed binder)
chain: MRGSHHHHHHGSGRGDSGSGSGSGSGSGSGAPQMLRELQEANAALQDVRELLRQQVKEITFLKNTVMESDASGSGSGSGSGSVDGSPAGSPTSTEEGTSESATPESGPGTSTEPSEGSAPGSPAGSPTSTEEGTSTEPSEGSAPGTSTEPSEGSAPGTSESATPESGPGSEPATSGSETPGSEPATSGSETPGSPAGSPTSTEEGTSESATPESGPGTSTEPSEGSAPLESGSGSGSGSGSGAPQMLRELQEANAALQDVRELLRQQVKEITFLKNTVMESDASGSGSGSGSGSGSGRGDSHHHHHHKLN
B3: Q54A mutant (SEQ ID NO: 83) (designed binder)
chain: B2 chain with A41T, Q55A, A253T, Q267A
B4: T40A+Q54A mutant (SEQ ID NO: 84) (designed binder)
chain: B2 chain with Q55A, Q267A

Biological target: the molecule itself
Experiment: cell-based or functional assay
For B1, the “Recovery Time Crossover [s], 25 C” value was 4.79 s, the “Recovery Time Crossover [s], 37 C” value was 7.91 s and the “Strain crossover (G'' > G'), 25 C” value was 161 % strain. For the same protein, the “Strain crossover (G'' > G'), 37 C” value was 151 % strain. In the case of B2, the “Recovery Time Crossover [s], 25 C” value is reported as 4.51 s, the “Recovery Time Crossover [s], 37 C” value is reported as 4.58 s and the “Strain crossover (G'' > G'), 25 C” value is reported as 127 % strain. The “Strain crossover (G'' > G'), 37 C” value was 143 % strain. In the case of B3, the “Recovery Time Crossover [s], 25 C” value is reported as 4.45 s, the “Recovery Time Crossover [s], 37 C” value is reported as 4.39 s and the “Strain crossover (G'' > G'), 25 C” value is reported as 116 % strain. For the same protein, the “Strain crossover (G'' > G'), 37 C” value was 132 % strain. With B4 the “Recovery Time Crossover [s], 25 C” value was 4.39 s, the “Recovery Time Crossover [s], 37 C” value was 4.38 s and the “Strain crossover (G'' > G'), 25 C” value was 119 % strain. For the same protein, the “Strain crossover (G'' > G'), 37 C” value was 95 % strain.

Source: US20260151539A1 (University of Washington, published 2026)
